According to IntAct's records for PubMed 29039417:

B1: BBSome complex member BBS5 (Homo sapiens), Q8N3I7 (parent)
chain: MSVLDALWEDRDVRFDLSAQQMKTRPGEVLIDCLDSIEDTKGNNGDRGRLLVTNLRILWHSLALSRVNVSVGYNCILNITTRTANSKLRGQTEALYILTKCNSTRFEFIFTNLVPGSPRLFTSVMAVHRAYETSKMYRDFKLRSALIQNKQLRLLPQEHVYDKINGVWNLSSDQGNLGTFFITNVRIVWHANMNDSFNVSIPYLQIRSIKIRDSKFGLALVIESSQQSGGYVLGFKIDPVEKLQESVKEINSLHKVYSASPIFGVDYEMEEKPQPLEALTVEQIQDDVEIDSDGHTDAFVAYFADGNKQQDREPVFSEELGLAIEKLKDGFTLQGLWEVMS
partner: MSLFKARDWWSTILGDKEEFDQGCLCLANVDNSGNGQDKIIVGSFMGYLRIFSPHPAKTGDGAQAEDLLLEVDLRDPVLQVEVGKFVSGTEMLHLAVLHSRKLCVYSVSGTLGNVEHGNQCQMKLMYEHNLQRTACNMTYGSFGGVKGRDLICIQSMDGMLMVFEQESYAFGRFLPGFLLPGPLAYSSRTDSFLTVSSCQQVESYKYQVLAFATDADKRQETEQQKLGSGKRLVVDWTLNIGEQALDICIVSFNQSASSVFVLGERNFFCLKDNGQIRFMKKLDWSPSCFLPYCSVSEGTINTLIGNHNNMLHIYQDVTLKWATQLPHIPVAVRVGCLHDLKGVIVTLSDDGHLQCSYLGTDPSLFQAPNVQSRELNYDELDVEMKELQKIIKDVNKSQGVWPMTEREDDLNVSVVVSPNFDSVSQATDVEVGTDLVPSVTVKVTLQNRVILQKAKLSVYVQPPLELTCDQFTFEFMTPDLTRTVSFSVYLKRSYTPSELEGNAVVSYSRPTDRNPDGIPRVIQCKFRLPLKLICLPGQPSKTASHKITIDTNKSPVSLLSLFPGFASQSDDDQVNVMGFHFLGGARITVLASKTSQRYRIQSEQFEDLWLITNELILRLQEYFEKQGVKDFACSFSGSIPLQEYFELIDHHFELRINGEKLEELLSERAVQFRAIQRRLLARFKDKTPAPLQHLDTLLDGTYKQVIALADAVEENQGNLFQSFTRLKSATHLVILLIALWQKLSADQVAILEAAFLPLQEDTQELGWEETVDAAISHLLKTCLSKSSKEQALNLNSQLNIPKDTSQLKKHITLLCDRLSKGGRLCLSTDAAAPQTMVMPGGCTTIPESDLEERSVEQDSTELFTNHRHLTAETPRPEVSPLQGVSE

Variants of: B1
Settings: with pthb1_human BBS9, Q3SYG4

Row | Variant | effect of a mutation on the interaction
1 | I290E | with no effect
2 | I290A | with no effect
3 | I290K | with no effect
4 | T280A | with no effect
5 | T280K | with no effect
6 | T280E | with no effect
7 | Q274A | with no effect
8 | Q274K | with no effect
9 | Q274E | with no effect
10 | D293K | with no effect
11 | D293A | with no effect
12 | D293E | with no effect
13 | E289A | with no effect
14 | E289K | with no effect
15 | E282K | with no effect
16 | E282A | with no effect
17 | D297A | with no effect
18 | E268K | with no effect
19 | E268A | with no effect
20 | V281E | with no effect
21 | V281K | with no effect
22 | V281A | with no effect
23 | L279K | with no effect
24 | L279E | with no effect

Row | Variant | effect of a mutation on the interaction
25 | L279A | with no effect
26 | E271K | with no effect
27 | E271A | with no effect
28 | P275A | with no effect
29 | P275K | with no effect
30 | P275E | with no effect
31 | M269E | with no effect
32 | M269A | with no effect
33 | M269K | with no effect
34 | E277A | with no effect
35 | E277K | with no effect
36 | V265E | with no effect
37 | V265K | with no effect
38 | V265A | with no effect
39 | D266K | with no effect
40 | D266A | with no effect
41 | D266E | with no effect
42 | D286A | with no effect
43 | D286E | with no effect
44 | D286K | with no effect
45 | H295K | with no effect
46 | H295A | with no effect
47 | H295E | with no effect
48 | T296E | with no effect

Row | Variant | effect of a mutation on the interaction
49 | T296K | with no effect
50 | T296A | with no effect
51 | I284A | with no effect
52 | I284K | with no effect
53 | I284E | with no effect
54 | V288A | with no effect
55 | V288E | with no effect
56 | V288K | with no effect
57 | D291K | with no effect
58 | D291E | with no effect
59 | D291A | with no effect
60 | L276E | with no effect
61 | L276A | with no effect
62 | L276K | with no effect
63 | G264K | with no effect
64 | G264A | with no effect
65 | G264E | with no effect
66 | P273K | with no effect
67 | P273A | with no effect
68 | P273E | with no effect
69 | G294E | with no effect
70 | G294A | with no effect
71 | G294K | with no effect
72 | Q285K | with no effect

Row | Variant | effect of a mutation on the interaction
73 | Q285A | disrupting interaction strength
74 | Q285E | with no effect
75 | Q283E | with no effect
76 | Q283K | with no effect
77 | Q283A | with no effect
78 | S292A | with no effect
79 | S292E | with no effect
80 | S292K | with no effect
81 | K272A | with no effect
82 | K272E | with no effect
83 | Y267E | with no effect
84 | Y267K | with no effect
85 | Y267A | with no effect
86 | A278K | with no effect
87 | A278E | with no effect
88 | E270A | with no effect
89 | E270K | with no effect
90 | D287E | with no effect
91 | D287K | with no effect
92 | D287A | with no effect
93 | F263E | with no effect
94 | F263K | with no effect
